Assay results from patent US12427163B2, “Anti-VTCN1 antibodies and antibody drug conjugates” (Bluefin BioMedicine, Inc., priority 2017, dated 2025).

T1: human VTCN1 protein (Homo sapiens, UniProt Q7Z7D3)
T1 construct: His
T1 sequence (Q7Z7D3 25-282): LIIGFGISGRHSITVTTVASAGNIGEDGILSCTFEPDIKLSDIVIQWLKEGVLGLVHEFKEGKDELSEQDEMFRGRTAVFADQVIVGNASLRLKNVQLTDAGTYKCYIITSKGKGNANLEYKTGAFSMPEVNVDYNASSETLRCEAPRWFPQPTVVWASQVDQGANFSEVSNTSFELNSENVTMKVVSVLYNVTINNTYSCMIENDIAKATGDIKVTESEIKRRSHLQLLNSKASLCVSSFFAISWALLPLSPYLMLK

T2: mouse VTCN1 protein (Mus musculus, UniProt Q7TSP5)
T2 construct: His
T2 sequence (Q7TSP5 25-257): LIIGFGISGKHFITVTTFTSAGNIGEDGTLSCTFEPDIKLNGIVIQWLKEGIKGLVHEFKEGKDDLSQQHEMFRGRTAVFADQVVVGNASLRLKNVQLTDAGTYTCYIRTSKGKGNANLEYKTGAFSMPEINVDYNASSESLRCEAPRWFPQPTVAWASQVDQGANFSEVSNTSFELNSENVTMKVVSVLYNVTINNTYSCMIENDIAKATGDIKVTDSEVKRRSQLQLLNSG

B1: 7G7_44C6: fully human VTCN1 antibody; VH SEQ ID NO: 256, VL SEQ ID NO: 260 (antibody, V domains shown)
VH: QVQLQESGPGLVKPSETLSLTCTVSGGSISHYYWSWIRQPPGKGLEWIGYIYYSGPTNYNPSLKSRVTISVDTSKNQFSLKLSSVTAADTAVYYCARTYYYGSGSFPDAFDIWGQGTMVTVSS
VL: KIVLTQSPATLSLSPGERATLSCRASQSVSSYLAWYQQTPGQAPRLLIYDASNRATGIPARFSVSGSGTDFTLTISSLEPEDFAVYYCQQRSSWPLTFGGGTKLEIK
B2: 10D1: mouse anti-human VTCN1 antibody; VH SEQ ID NO: 57, VL SEQ ID NO: 61 (antibody, V domains shown)
VH: QVQLQESGPELVKPGASVKLSCKASGYIFTDYTIHWLKQSPGQGLEWIGWIYPGSGHTHYNDKFKGKATMTADKSSTTAYMQLSSLTSEDSAVFFCARGGESITTVFPLAYWGQGTLVTVSA
VL: DIVMSQSPSSLAVSVGEKVTMSCKSSQSLLYSSDQKNYLAWYQQKPGQSPKLLIYWASTWESGVPDRFIGSGSGTDFTLTVSSVKAEDLAVYYCHQYYSYPPTFGAGTKLEIK
B3: hu6D9_57A3: humanized 6D9 antibody; VH SEQ ID NO: 220, VL SEQ ID NO: 224 (antibody, V domains shown)
VH: QVQLVESGGGVVQPGRSLRLSCAVSGFSLTSYGVQWVRQAPGKGLEWLGVIWSSGSTDYNAAFLSRLTISKDNSKNTVYFQMNSLRAEDTAVYYCARDVTTIVEGFAHWGQGTLVTVSS
VL: DIQMTQSPSSLSASVGDRVTITCKASEKVGTYVSWYQQKPGKAPKLLIYGASNRYTGVPSRFSGSGSGTDFTLTISSLQPEDFATYYCGQTYSYPFTFGQGTKLEIK
B4: hu6D9_66B1: humanized 6D9 antibody; VH SEQ ID NO: 236, VL SEQ ID NO: 224 (antibody, V domains shown)
VH: QVQLVESGGGVVQPGRSLRLSCAVSGFTFSSYGVQWVRQAPGKGLEWLGVIWSSGSTDYNAAFLSRLTISKDNSKNTVYFQMNSLRAEDTAVYYCARDVTTIVEGFAHWGQGTLVTVSS
VL: DIQMTQSPSSLSASVGDRVTITCKASEKVGTYVSWYQQKPGKAPKLLIYGASNRYTGVPSRFSGSGSGTDFTLTISSLQPEDFATYYCGQTYSYPFTFGQGTKLEIK
B5: hu6D9_57A5: humanized 6D9 antibody; VH SEQ ID NO: 232, VL SEQ ID NO: 224 (antibody, V domains shown)
VH: QVQLVESGGGVVQPGRSLRLSCAVSGFSLTSYGVQWVRQAPGKGLEWLAVIWSSGSTDYNAAFLSRLTISKDNSKNTVYFQMNSLRAEDTAVYYCARDVTTIVEGFAHWGQGTLVTVSS
VL: DIQMTQSPSSLSASVGDRVTITCKASEKVGTYVSWYQQKPGKAPKLLIYGASNRYTGVPSRFSGSGSGTDFTLTISSLQPEDFATYYCGQTYSYPFTFGQGTKLEIK
B6: hu6D9_57A4: humanized 6D9 antibody; VH SEQ ID NO: 228, VL SEQ ID NO: 224 (antibody, V domains shown)
VH: QVQLVESGPGVVQPGRSLRLSCAVSGFSLTSYGVQWVRQAPGKGLEWLAVIWSSGSTDYNAAFLSRLTISKDNSKSTVYFQMNSLRAEDTAVYYCARDVTTIVEGFAHWGQGTLVTVSS
VL: DIQMTQSPSSLSASVGDRVTITCKASEKVGTYVSWYQQKPGKAPKLLIYGASNRYTGVPSRFSGSGSGTDFTLTISSLQPEDFATYYCGQTYSYPFTFGQGTKLEIK
B7: 13H9_44D2: fully human VTCN1 antibody; VH SEQ ID NO: 272, VL SEQ ID NO: 276 (antibody, V domains shown)
VH: QVQLQESGPGLVKPSETLSLTCTVSGGSISSYYWSWIRQPPGKGLEWIGYIYYSGSTNNNPSLKSRVTISVDTSKNQFSLKLISVTAADTAVYYCARVYNNYDWGFDYWGQGTLVTVSS
VL: EIVMTQSPATLSVSPGERATLSCRASQSVSSNLAWYQQKPGQAPRLLIYGASTRATGIPARFSGSGSGTEFTLTIRSLQSEDFAVYYCQQYHNWPLTFGGGTKLEIK
B8: 6E2: mouse anti-human VTCN1 antibody; VH SEQ ID NO: 33, VL SEQ ID NO: 37 (antibody, V domains shown)
VH: QIQLQESGPGLVQPSQSLSITCTVSGFSLTSYGVQWVRQSPGKGLEWLGVIWSGGSTDYNAAFISRLSISKDNSKSQVFFKMNSLQADDTAIYYCARDISTIVEGFAHWGQGTLVTVSS
VL: NIVMTQSPKSMSMSVGERVTLSCKASEKVGTYVSWYQQKPEQSPKLLIYGASNRYTGVPDRFTGSGSATDFTLTISSVQAEDLADYHCGQSYRYPFTFGSGTKLEIK
B9: 3G10: mouse anti-human VTCN1 antibody; VH SEQ ID NO: 17, VL SEQ ID NO: 21 (antibody, V domains shown)
VH: QIQLKESGPGLVQPSQSLSITCTVSGFSLTSYGVHWVRQSPGKGLEWLGVIWSGGYTDYNSAFISRLSISKDNSKSQVFFKMNSLQADDTAIYYCARDITTIVEGFAYWGQGTLVTVSA
VL: IIVMTQSPKSMSMSVGERITLNCKASENVGTYVSWYQQKPEQSPKLLIYGASNRYTGVPDHFTGSGSATDFTLTISSVQAEDLADYHCGQTYSYPFTFGSGTKLEIK
B10: 7F10: mouse anti-human VTCN1 antibody; VH SEQ ID NO: 137, VL SEQ ID NO: 141 (antibody, V domains shown)
VH: QVQLQQSGPGLVQPSQSLSITCTVSGFSLTSYGIHWVRQSPGKGLEWLGVIWSSGSTDYNAAFISRLSISKDNSKSQVFFKMNSLQSDDTAIHYCARDITTIAEGFAYWGQGTLVTVSA
VL: NIVMTQSPKSMSMSVGERVTLSCKASENVGTYVSWYQQKPEQSPKLLIYGASNRYTGVPDRFTGSGSATDFTLTISSVQAEDLADYHCGQSYSYPFTFGSGTKLEIK
B11: 5A12: mouse anti-human VTCN1 antibody; VH SEQ ID NO: 105, VL SEQ ID NO: 109 (antibody, V domains shown)
VH: QVQLQQSGPGLVQPSQSLSITCTVSGFSLTSYGVQWVRQSPGKGLEWLGVIWSSGSTDYNAAFISRLSINKDNSKSQVFFKMNSLQPDDTAIYYCARDITTIVEGFAYWGQGTLVTVSA
VL: IIVMTQSPKSMSMSVGERVTLSCKASENVGTYVSWYQQKPEQSPKLLIYGASNRYTGVPDRFTGSGSATDFTLTISSVQAEDLADYHCGQSYSYPFTFGSGTKLEIK

Tests used:
Type in all cases: binding
[1] = biological target: T1, human VTCN1 protein; assay: Affinity to recombinant VTCN1-his by OCTET Red (Protein A biosensors); conditions: for Human K(off) / Human k(on): Table 12; for Kdis (human) / Kon (human): Table 5; for K(off) / k(on): Table 9
Procedure: (§1) The affinity of antibodies to recombinant VTCN1 was determined on an OCTET™ Red (Pall, ForteBio) instrument. After loading reagents into a 96-well plate, the OCTET™ Red with Protein A-conjugated biosensors was programmed as follows: 30 seconds for baseline #1; 45 seconds to immobilize the antibody; 30 seconds for baseline #2; 300 seconds for association of antibody to recombinant VTCN1-his; and 300 seconds for dissociation of recombinant VTCN1-his from the antibody. Table 5 lists the affinity measured for selected antibodies.

[2] = biological target: T2, mouse VTCN1 protein; assay: Affinity by OCTET, mouse VTCN1; conditions: Table 12
Procedure: as §1

[3] = tested on: cynomolgus monkey VTCN1 protein; assay: Affinity by OCTET, cynomolgus monkey VTCN1; conditions: Table 12
Procedure: The affinity of antibodies to recombinant VTCN1 was determined on an OCTET™ Red (Pall, ForteBio) instrument. After loading reagents into a 96-well plate, the OCTET™ Red with Protein A-conjugated biosensors was programmed as follows: 30 seconds for baseline #1; 45 seconds to immobilize the antibody; 30 seconds for baseline #2; 300 seconds for association of antibody to recombinant VTCN1-his; and 300 seconds for dissociation of recombinant VTCN1-his from the antibody.

Row | Molecule | Kdis (human) [1] | Kon (human) [1] | K(off) [1] | k(on) [1] | other results
1 | B1 | – | – | – | – | Human K(off) [1]: 1.62E−01; Human k(on) [1]: 8.42E+05; Kd [2]: > 500 nM; cynomolgus monkey k(off) [3]: 1.50E−01; cynomolgus monkey k(on) [3]: 6.61E+05
2 | B2 | 4.04 × 10^−3 | 9.83 × 10^5 | – | – | –
3 | B3 | – | – | 2.27E−03 | 8.21E+04 | –
4 | B4 | – | – | 3.25E−03 | 1.20E+05 | –
5 | B5 | – | – | 2.89E−03 | 8.14E+04 | –
6 | B6 | – | – | 2.26E−03 | 6.21E+04 | –
7 | B7 | – | – | – | – | Human K(off) [1]: 1.71E−01; Human k(on) [1]: 1.33E+06; mouse k(off) [2]: 5.79E−01; mouse k(on) [2]: 2.16E+06; cynomolgus monkey k(off) [3]: 1.67E−01; cynomolgus monkey k(on) [3]: 1.16E+06
8 | B8 | 7.46 × 10^−3 | 9.41 × 10^5 | – | – | –
9 | B9 | 1.26 × 10^−2 | 1.07 × 10^6 | – | – | –
10 | B10 | 5.94 × 10^−3 | 1.15 × 10^6 | – | – | –
11 | B11 | 1.64 × 10^−3 | 3.93 × 10^5 | – | – | –
